For two substances, fold stronger binding avidity than AAV5 results are on record in article PMC9769368.

In this experiment the target is AAVGo.1 virus-like particles (goat adeno-associated virus capsid, without DNA genome) (goat adeno-associated virus AAVGo.1). Put plainly: ELISA; direct ELISA in duplicate; AAV VLPs (2.5 ug/mL) coated on plates in 100 mM NaHCO3 pH 9.6, washed with TBST; N-terminally His-tagged AAVR fragment added, detected with anti-6x His HRP antibody; OD 450 nm; EC50 by nonlinear regression (avidity).

“His6PKD1, fragment of human AAV receptor (AAVR) with PKD domain 1 (domain or fragment)” had a fold stronger binding avidity than AAV5 of 3 fold.

In turn, “His6PKD12, fragment of human AAV receptor (AAVR) with PKD domains 1 and 2 (domain or fragment)” gave a fold stronger binding avidity than AAV5 of 2 fold.
